Results: patent US20100233154A1, “TARGETED BINDING AGENTS DIRECTED TO HEPARANASE AND USES THEREOF 463” (MedImmune Limited, priority 2008, published 2010)
Each block holds one molecule with its values, some of them ahead of it.

Tests used:
[1] = molecular target: T1, recombinant human heparanase (Homo sapiens, UniProt Q9Y251); assay: ELISA binding to directly coated recombinant human heparanase
T1 construct: Heparanase 8 and 50 kDa sub-units were cloned into pacGP67 as Sma 1-EcoR1 fragments; made in house; host or cells: Hi5 insect cells, baculovirus (pFastBac Dual)
T1 sequence (Q9Y251 158-543 limits assumed): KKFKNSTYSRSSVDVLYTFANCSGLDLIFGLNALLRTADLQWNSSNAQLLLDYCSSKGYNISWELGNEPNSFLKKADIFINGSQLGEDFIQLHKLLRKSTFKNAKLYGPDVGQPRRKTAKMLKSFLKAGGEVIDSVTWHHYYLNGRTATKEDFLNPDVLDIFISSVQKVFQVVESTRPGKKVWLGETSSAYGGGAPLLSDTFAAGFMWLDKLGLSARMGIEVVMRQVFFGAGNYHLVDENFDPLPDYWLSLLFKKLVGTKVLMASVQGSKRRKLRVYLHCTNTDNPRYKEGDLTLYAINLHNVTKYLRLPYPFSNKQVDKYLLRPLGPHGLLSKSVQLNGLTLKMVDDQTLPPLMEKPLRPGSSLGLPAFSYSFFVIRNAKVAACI
T1 sequence (Q9Y251 36-109 limits assumed): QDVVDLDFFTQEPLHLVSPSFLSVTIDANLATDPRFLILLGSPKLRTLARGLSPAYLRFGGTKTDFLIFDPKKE
Experimental: (§1) Titres of antibodies from Campaigns 1 and 2 were determined in an ELISA. Costar 3368 medium binding plates were coated directly with recombinant human heparanase or plates were coated with Rabbit anti-heparanase antibody (Raybiotech, Cat. IP-14-155) to capture recombinant heparanase. Directly coated heparanase was detected in three separate plates by mouse (InSight Cat. INS-26-1-0000), goat (Santa Cruz, Cat. sc26136) or rabbit (Raybiotech, Cat. IP-14-155) anti-heparanase antibodies, and quantified using appropriate secondary antibodies. Antibody captured heparanase was detected using mouse anti-heparanase (Insight Cat. INS-26-1-0000). At the end of the immunisation program, fusions were performed using mouse myeloma cells and lymphocytes isolated from the spleens and lymph nodes of the immunised mice by means of electroporation, as described in Example 2.
(§2) Initial screening to detect antibodies binding to human heparanase in both direct coating and antibody capture ELISAs as described above identified 800 hybridomas for further testing; 535 IgG2 from Campaign 1 and 2 and 265 IgG4 from Campaign 2. Enzyme inhibition assays and cross species binding to cynomolgus and murine heparanase, in an antibody capture ELISA, identifed 12 antibodies that were taken forward for sub-cloning to provide purified antibodies for further analysis. Subsequently, confirmation of activity against human heparanase (FIGS. 3 and 4) and inhibition of recombinant cynomolgus and murine heparanase activity in the HS-cryptate degradation assay (FIG. 5a-c), together with sequence analysis, identified 8 antibodies that are described in the table below.

[2] = molecular target: T2, recombinant heparanase captured with rabbit anti-heparanase antibody (Homo sapiens, UniProt Q9Y251); assay: ELISA binding to antibody-captured heparanase; settings: antibody capture
T2 construct: Heparanase 8 and 50 kDa sub-units were cloned into pacGP67 as Sma 1-EcoR1 fragments; made in house; host or cells: Hi5 insect cells, baculovirus (pFastBac Dual)
T2 sequence (Q9Y251 158-543 limits assumed): T1 sequence (Q9Y251 158-543 limits assumed)
T2 sequence (Q9Y251 36-109 limits assumed): T1 sequence (Q9Y251 36-109 limits assumed)
Experimental: as §1, §2

human heparanase = molecular target: T3, human heparanase (Homo sapiens, UniProt Q9Y251); assay: Cross species capture ELISA, human heparanase; format: binding
T3 sequence (Q9Y251 36-543): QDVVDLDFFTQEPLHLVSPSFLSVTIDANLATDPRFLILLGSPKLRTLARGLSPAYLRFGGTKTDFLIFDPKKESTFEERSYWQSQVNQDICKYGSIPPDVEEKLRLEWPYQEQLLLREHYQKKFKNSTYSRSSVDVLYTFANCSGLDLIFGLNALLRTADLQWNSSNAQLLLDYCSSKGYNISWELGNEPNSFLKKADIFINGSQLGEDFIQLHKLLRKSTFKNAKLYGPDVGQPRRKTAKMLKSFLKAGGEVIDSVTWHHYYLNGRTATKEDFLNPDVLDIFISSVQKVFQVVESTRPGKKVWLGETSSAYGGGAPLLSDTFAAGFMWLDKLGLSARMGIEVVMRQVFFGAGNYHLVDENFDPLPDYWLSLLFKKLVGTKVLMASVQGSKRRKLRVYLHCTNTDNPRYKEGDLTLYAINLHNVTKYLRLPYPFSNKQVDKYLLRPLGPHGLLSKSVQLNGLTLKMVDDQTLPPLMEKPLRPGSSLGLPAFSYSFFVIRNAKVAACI
Experimental: (§3) Initially, cross species binding to human, murine and cynomolgus heparanase was determined in an ELISA assay in which heparanase was captured onto plates using a rabbit anti-heparanase antibody (Raybiotech, Cat. IP-14-155). Exhaustive supernatants were added to the plates at a final dilution of 1:5 and bound antibody detected with a rabbit anti-human IgG Fc.

cynomolgus heparanase = assay: Cross species capture ELISA, cynomolgus heparanase; format: binding; settings: min 0.06, max 1.5 OD units
Experimental: as §3

murine heparanase = molecular target: T4, murine heparanase (Mus musculus, UniProt Q6YGZ1); assay: Cross species capture ELISA, murine heparanase; format: binding; settings: min 0.06, max 0.9 OD units
T4 construct: made in house; host or cells: Hek293 cells (conditioned medium), inferred for the ELISA
T4 sequence (Q6YGZ1 28-535): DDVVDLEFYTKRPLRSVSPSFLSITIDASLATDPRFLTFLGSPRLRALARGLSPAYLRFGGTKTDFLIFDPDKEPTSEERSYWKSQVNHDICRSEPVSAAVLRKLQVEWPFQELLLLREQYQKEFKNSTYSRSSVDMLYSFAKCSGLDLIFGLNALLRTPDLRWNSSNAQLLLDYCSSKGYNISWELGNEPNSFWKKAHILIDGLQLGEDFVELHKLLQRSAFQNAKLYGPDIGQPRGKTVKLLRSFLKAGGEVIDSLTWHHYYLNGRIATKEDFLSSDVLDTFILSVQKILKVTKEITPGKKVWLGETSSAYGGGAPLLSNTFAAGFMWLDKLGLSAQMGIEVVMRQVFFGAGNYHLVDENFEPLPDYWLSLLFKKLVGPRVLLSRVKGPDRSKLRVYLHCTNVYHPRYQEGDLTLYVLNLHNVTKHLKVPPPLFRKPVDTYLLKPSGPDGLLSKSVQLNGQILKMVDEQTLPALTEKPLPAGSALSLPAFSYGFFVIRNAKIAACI
Experimental: as §3

Recombinant Hpa1 = molecular target: T5, Recombinant Hpa1 (Homo sapiens, UniProt Q9Y251); assay: Medium resolution Biacore affinity; format: binding
T5 construct: Heparanase 8 and 50 kDa sub-units were cloned into pacGP67 as Sma 1-EcoR1 fragments; made in house; host or cells: Hi5 insect cells, baculovirus (pFastBac Dual)
T5 sequence (Q9Y251 158-543 limits assumed): T1 sequence (Q9Y251 158-543 limits assumed)
T5 sequence (Q9Y251 36-109 limits assumed): T1 sequence (Q9Y251 36-109 limits assumed)
Experimental: For medium resolution Biacore™ tests, cloned and purified antibodies were used. Each of three purified antibodies (10E9.1, 15A1.2, and 15A11.1) were captured onto a high-density goat anti-human antibody surface over a CM4 Biacore™ chip. Recombinant Hpa1 was diluted to the desired concentration (1 nM and 10 nM) in 10 mM HEPES, 150 mM NaCl, 0.005% tween-20, 0.1 mg per ml BSA pH7.4 (25° C.) immediately prior to injection. Data were fit globally to a 1:1 interaction model with a term for mass transport included. The resulting KD values are summarised below in Table 4.

MDA MB231-Hpa1#4 cells = assay: Heparanase expression in cells cultured with antibody (Western blot); format: cell-based, human; settings: 25 μg per ml antibody, 72 hrs, compared to untreated or IgG2 control
Experimental: MDA MB231-Hpa1#4 cells were cultured in the presence of 25 μg per ml anti-human heparanase antibody or control IgG2 antibody (Sigma Cat. No. 1504-1MG) for 72 hrs. Following the removal of culture medium, protein extracts were prepared from the cells in 100 μl RIPA buffer and separated on […] gels and transferred to nitrocellulose as described above. Western blots were probed with an anti-heparanase antibody that detected only pro-heparanase (SantaCruz Cat. No. SC25825).

MCF7-Hpa1#19 xenograft = assay: Subcutaneous xenograft tumour growth, MCF7-Hpa1#19; format: in vivo, SCID mice; settings: once weekly i.p.; 10E9.1 at 7.5 or 15 mg per kg
Experimental: (§4) MCF7-Hpa1#19 and HCT116 tumour cells were harvested from sub-confluent cultures. A total of 5×10^6 (MCF7-Hpa1#19) or 10^7 (HCT116) tumour cells were inoculated subcutaneously into the flank of male SCID mice. HCT116 tumour cells were implanted in PBS; […] cells were implanted in PBS containing 50% matrigel.
(§5) When tumours had attained ˜200 mm^3, tumour bearing mice were randomised into treatment groups and dosed with the following; PBS; an isotype matched control IgG2 antibody, 15 mg per kg; anti-heparanase antibody 10E9.1, 7.5 or 15 mg per kg. All treatments were administered once weekly i.p. Tumour growth was measured twice per week using calipers and tumour volumes calculated according to an ellipsoid volume is formula (3.142/6×length×width×width) from measures of the largest tumour diameter and two opposing widths (FIG. 11).

HCT116 xenograft = assay: Subcutaneous xenograft tumour growth, HCT116; format: in vivo, SCID mice; settings: once weekly i.p.; 10E9.1 at 15 mg per kg
Experimental: as §4, §5

[3] = purified antibody captured on CM4 chip, Hpa1 1 nM and 10 nM, 25° C.

B1: 14H12.3: human anti-heparanase monoclonal antibody, G2λ; VH SEQ ID NO 26, VL SEQ ID NO 28 (antibody, listed as Homo Sapiens, V domains shown)
VH: QVQLVESGGGVVQPGRSLRLSCAASGFTFSSYGMHWVRQAPGKGLEWVAVIWYDGSNKDYADSVKGRFTISRDNSKNTLYLQMNSLRAEDTAVYYCAREGSTSWTDYYGMDVWGQGTTVTVSS
VL: SYELTQPPSVSVSPGQTARITCSGDALPKRYAYWYQQKSGQALVLVIYEDSKRPSGIPERFSGSSSGTMATLTISGAQVEDEADYYCYSIDSSGNHGVFGGGTKLTVL
Binding to direct coated heparanase [1]: 3.69 OD units
Binding to captured heparanase [2]: 3.27 OD units
Binding to heparanase Human (human heparanase): 0.61 OD units
Binding to heparanase Cyno (cynomolgus heparanase): 0.95 OD units
Binding to heparanase Mouse (murine heparanase): 0.14 OD units

B2: 7B9.1: human anti-heparanase monoclonal antibody, G4λ; VH SEQ ID NO 22, VL SEQ ID NO 24 (antibody, listed as Homo Sapiens, V domains shown)
VH: QVQLVESGGGVVQPGRSLRLSCAASGFTFSSYGMHWVRQAPGKGLEWVAVIWYDGSNKYYADSVKGRFTISRDNSKNTLYLQMNSLRAEDTAVYYCAREGAPYSSSDAFDIWGQGTMVTVSS
VL: QSVLTQPPSVSGAPGQRVTISCTGSSSNIGANYDVHWYQQLPGTAPKLLIYGDNNRPSGVPDRFSGSKSGTSASLAITGLQAEDEADYYCQSYDSSLSGSVFGGGTKLTVL
Binding to direct coated heparanase [1]: 3.78 OD units
Binding to captured heparanase [2]: 6.0 OD units
Binding to heparanase Human (human heparanase): 0.68 OD units
Binding to heparanase Cyno (cynomolgus heparanase): 1.06 OD units
Binding to heparanase Mouse (murine heparanase): 0.58 OD units

The next lines start with results.

Binding to direct coated heparanase [1]: 0.08 OD units
Binding to captured heparanase [2]: 0.92 OD units
Binding to heparanase Human (human heparanase): 0.19 OD units
Binding to heparanase Cyno (cynomolgus heparanase): 0.11 OD units
Binding to heparanase Mouse (murine heparanase): 0.14 OD units
Kd (Recombinant Hpa1; 1:1 interaction model with mass transport term): 0.0859 nM
ka (Recombinant Hpa1; [3]): 1.88e+06 M⁻¹ s⁻¹
kd (Recombinant Hpa1; [3]): 0.000105 s⁻¹
B3: 15A1.2: fully human anti-heparanase monoclonal antibody, G2κ; VH SEQ ID NO 6, VL SEQ ID NO 8; ATCC PTA-9491 (antibody, listed as Homo Sapiens, V domains shown)
VH: QVQLVQSGAEVKKPGASVKVSCKVSGYTLTELSMHWVRQAPGKGLEWMGGFDPEDGETIFAQKFQGRVTMTEDTSTDTAYMELSSLRSEDTAVYYCATGLRFLEWFLWGWDVWGQGTTVTVSS
VL: DIQMTQSPSSVSASVGDRVTITCRASQGISNWLAWYQQTPGKAPQLLIYGASSLQSGVPSRFSGSGSGTDFTLTISSLQPEDFATYYCQQADSFPPTFGQGTKVEIK
notes: fully human anti-heparanase monoclonal antibody, G2κ; ATCC PTA-9491
Inhibition of heparanase expression (MDA MB231-Hpa1#4 cells): significant inhibition of heparanase expression
Tumour growth inhibition (MCF7-Hpa1#19 xenograft): not inhibited
Tumour growth inhibition (HCT116 xenograft): not inhibited

Binding to direct coated heparanase [1]: 3.63 OD units
Binding to captured heparanase [2]: 3.82 OD units
Binding to heparanase Human (human heparanase): 1.84 OD units
Binding to heparanase Cyno (cynomolgus heparanase): 1.64 OD units
Binding to heparanase Mouse (murine heparanase): 0.61 OD units
B4: 16G1.1: human anti-heparanase monoclonal antibody, G4κ; VH SEQ ID NO 14, VL SEQ ID NO 16 (antibody, listed as Homo Sapiens, V domains shown)
VH: QVQLVESGGGVVQPGRSLRLSCAASGFTFSSYGMHWVRQAPGKGLEWVAVIWYDGSNKYYADSVKGRFTISRDNSKNTLNLQMNSLRAEDTAVYYCGRDPGTYHYYYHGMDVWGQGTTVTVSS
VL: YIVMTQSPLSLPVTPGEPASISCRSSQSLLHSNGYNFLDWYLQKPGQSPQLLIYLGSNRASGVPDRFSGSGSGTDFTLKINRVEAEDVGVYYCMQALQTPITFGQGTRLEIK
